Measurements published in patent US20190309059A1 (SHANGHAI PHARMAEXPLORER, published 2019).

Legend:
[1] = target: his-labeled human IL-13 (immunogen A) (human) (UniProt P35225); experiment: SPR (Biacore), antibody captured by anti-human Fc, immunogen A as analyte
[2] = target: his-labeled human IL-13 (immunogen A) (human) (UniProt P35225); experiment: SPR (Biacore)
[3] = target: his-labeled human IL-13R130Q variant (human) (UniProt P35225); experiment: ELISA, IL-13R130Q variant; antibody at 13.33 nM
[4] = target: his-labeled human IL-13R130Q variant (human) (UniProt P35225); experiment: ELISA, IL-13R130Q variant; antibody at 0.11 nM
[5] = target: his-labeled human IL-13R130Q variant (human) (UniProt P35225); experiment: ELISA, IL-13R130Q variant; antibody at 2.67 nM
[6] = target: his-labeled human IL-13R130Q variant (human) (UniProt P35225); experiment: ELISA, IL-13R130Q variant; antibody at 0.021 nM
[7] = target: his-labeled human IL-13R130Q variant (human) (UniProt P35225); experiment: ELISA, IL-13R130Q variant; antibody at 0.004 nM
[8] = target: his-labeled human IL-13R130Q variant (human) (UniProt P35225); experiment: ELISA, IL-13R130Q variant; antibody at 66.67 nM
[9] = target: his-labeled human IL-13R130Q variant (human) (UniProt P35225); experiment: ELISA, IL-13R130Q variant; antibody at 0.53 nM
[10] = target: his-labeled human IL-13 (immunogen A) (human) (UniProt P35225); experiment: FACS blocking, biotin-IL-13 on IL-13Ra1/IL-4Ra HEK293 cells; antibody at 1.33 nM
[11] = target: his-labeled human IL-13 (immunogen A) (human) (UniProt P35225); experiment: cell-based or functional assay
[12] = target: his-labeled human IL-13 (immunogen A) (human) (UniProt P35225); experiment: FACS blocking, biotin-IL-13 on IL-13Ra2 HEK293 cells; antibody at 0.002 nM
[13] = target: his-labeled human IL-13 (immunogen A) (human) (UniProt P35225); experiment: FACS blocking, biotin-IL-13 on IL-13Ra2 HEK293 cells; antibody at 33.33 nM
[14] = target: his-labeled human IL-13 (immunogen A) (human) (UniProt P35225); experiment: FACS blocking, biotin-IL-13 on IL-13Ra1/IL-4Ra HEK293 cells; antibody at 0.01 nM
[15] = target: his-labeled human IL-13 (immunogen A) (human) (UniProt P35225); experiment: FACS blocking, biotin-IL-13 on IL-13Ra1/IL-4Ra HEK293 cells; antibody at 0.002 nM
[16] = target: his-labeled human IL-13 (immunogen A) (human) (UniProt P35225); experiment: FACS blocking assay: antibody titrated with biotin-labeled immunogen A (30 ng/mL); blocked partner IL-13Ra1/IL-4Ra on HEK293 clone 4C1; Alexa 488 streptavidin
[17] = target: his-labeled human IL-13 (immunogen A) (human) (UniProt P35225); experiment: FACS blocking, biotin-IL-13 on IL-13Ra1/IL-4Ra HEK293 cells; antibody at 0.27 nM
[18] = target: his-labeled human IL-13 (immunogen A) (human) (UniProt P35225); experiment: FACS blocking, biotin-IL-13 on IL-13Ra1/IL-4Ra HEK293 cells; antibody at 0.05 nM
[19] = target: his-labeled human IL-13 (immunogen A) (human) (UniProt P35225); experiment: FACS blocking assay: antibody titrated with biotin-labeled immunogen A (20 ng/mL); blocked partner IL-13Ra2 on HEK293 clone 1A1; Alexa 488 streptavidin
[20] = target: his-labeled human IL-13 (immunogen A) (human) (UniProt P35225); experiment: FACS blocking, biotin-IL-13 on IL-13Ra1/IL-4Ra HEK293 cells; antibody at 33.33 nM
[21] = target: his-labeled human IL-13 (immunogen A) (human) (UniProt P35225); experiment: FACS blocking, biotin-IL-13 on IL-13Ra2 HEK293 cells; antibody at 1.33 nM
[22] = target: his-labeled human IL-13 (immunogen A) (human) (UniProt P35225); experiment: FACS blocking, biotin-IL-13 on IL-13Ra1/IL-4Ra HEK293 cells; antibody at 6.67 nM
[23] = target: his-labeled human IL-13 (immunogen A) (human) (UniProt P35225); experiment: FACS blocking, biotin-IL-13 on IL-13Ra1/IL-4Ra HEK293 cells; antibody at 166.67 nM
[24] = target: his-labeled human IL-13 (immunogen A) (human) (UniProt P35225); experiment: FACS blocking, biotin-IL-13 on IL-13Ra2 HEK293 cells; antibody at 0.01 nM
[25] = target: his-labeled human IL-13 (immunogen A) (human) (UniProt P35225); experiment: FACS blocking, biotin-IL-13 on IL-13Ra2 HEK293 cells; antibody at 0.05 nM
[26] = target: his-labeled human IL-13 (immunogen A) (human) (UniProt P35225); experiment: FACS blocking, biotin-IL-13 on IL-13Ra2 HEK293 cells; antibody at 6.67 nM
[27] = target: his-labeled human IL-13 (immunogen A) (human) (UniProt P35225); experiment: FACS blocking, biotin-IL-13 on IL-13Ra2 HEK293 cells; antibody at 0.27 nM
[28] = target: his-labeled human IL-13 (immunogen A) (human) (UniProt P35225); experiment: FACS blocking, biotin-IL-13 on IL-13Ra2 HEK293 cells; antibody at 166.67 nM

Sequence of his-labeled human IL-13R130Q variant (human) (P35225 other isoform, or with tags, fused parts or gaps mutant): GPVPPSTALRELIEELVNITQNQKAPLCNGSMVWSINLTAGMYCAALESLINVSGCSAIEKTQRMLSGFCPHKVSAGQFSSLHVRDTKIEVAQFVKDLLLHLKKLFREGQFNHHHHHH

B1: c35H6E1 (mouse-human chimeric IL-13 antibody) (antibody, V domains shown)
VH: QVTLKESGPGILQSSQTLSLTCSFSGFSLSTSNMGVSWIRQPSGKGLEWLAHIYWDDDKRYNPSLESRLTISKDTSRNQVFLKITSVDTADSATYYCARRTNYFSTRDYFDYWGQGTTLTVSS
VL: DIQMTQSPASLSVSVGETVTITCRASENIYSNLVWYQQKQGKSPQLLVYAATKLADGVPSRFSGSGSGTQYSLKINSLQSEDFGSYYCQHFWGFPWTFGGGTKLEIK
[1]
  Kd: 336 pM
  koff: 0.000445 s⁻¹
  kon: 1.33e+06 M⁻¹ s⁻¹
[2]
  Kd: < 90000 pM
[3]
  OD450 nm: 3.23
[4]
  OD450 nm: 0.8
[5]
  OD450 nm: 2.97
[6]
  OD450 nm: 0.23
[7]
  OD450 nm: 0.11
[8]
  OD450 nm: 3.31
[9]
  OD450 nm: 2.13

B2: c70F10A10 (mouse-human chimeric IL-13 antibody) (antibody, V domains shown)
VH: QIQLQQSGAELARPGASVKLSCKASGYTFTSYGISWVKQRDGQGLEWIGEIYPRSGNTDYNEKFKGKATLTADKSSSTAYMELRSLTSEDSAVYFCSSFTTLVPTDYFDYWGQGTTLTVSS
VL: DIMMSQSPSSLAVSVGEKVSMTCKSSQSLLYSSNQKNYLAWYQQKPGQSPKMLIYWASTRETGVPDRFTGSGSGTDFTLTISSVMAEDLAVYYCHQYFTYPRTFGDGTKLEVK
[1]
  Kd: 1020 pM
  koff: 0.000271 s⁻¹
  kon: 267000 M⁻¹ s⁻¹
[2]
  Kd: < 90000 pM
[10]
  mean fluorescence intensity: 53.3
[11]
  Periostin (pg/mL), MRCS cells + IL-13 5 ng/mL; antibody at 0.0002 nM: 6960 pg/mL
  Periostin (pg/mL), MRCS cells + IL-13 5 ng/mL; antibody at 0.001 nM: 6050 pg/mL
  Periostin (pg/mL), MRCS cells + IL-13 5 ng/mL; antibody at 0.004 nM: 5010 pg/mL
  Periostin (pg/mL), MRCS cells + IL-13 5 ng/mL; antibody at 0.021 nM: 4540 pg/mL
  Periostin (pg/mL), MRCS cells + IL-13 5 ng/mL; antibody at 0.11 nM: 4570 pg/mL
  Periostin (pg/mL), MRCS cells + IL-13 5 ng/mL; antibody at 0.53 nM: 3660 pg/mL
  Periostin (pg/mL), MRCS cells + IL-13 5 ng/mL; antibody at 2.67 nM: 2620 pg/mL
  Periostin (pg/mL), MRCS cells + IL-13 5 ng/mL; antibody at 13.3 nM: 1260 pg/mL
  TARC (pg/mL), A549 cells + IL-13 + TNFα; antibody at 0.001 nM: 2610 pg/mL
  TARC (pg/mL), A549 cells + IL-13 + TNFα; antibody at 0.004 nM: 3030 pg/mL
  TARC (pg/mL), A549 cells + IL-13 + TNFα; antibody at 0.021 nM: 2770 pg/mL
  TARC (pg/mL), A549 cells + IL-13 + TNFα; antibody at 0.11 nM: 2780 pg/mL
  TARC (pg/mL), A549 cells + IL-13 + TNFα; antibody at 0.53 nM: 2800 pg/mL
  TARC (pg/mL), A549 cells + IL-13 + TNFα; antibody at 2.67 nM: 2240 pg/mL
  TARC (pg/mL), A549 cells + IL-13 + TNFα; antibody at 13.3 nM: 1120 pg/mL
  TARC (pg/mL), A549 cells + IL-13 + TNFα; antibody at 66.7 nM: 348 pg/mL
  VCAM-1 fluorescence intensity, HUVEC + IL-13 0.5 ng/mL + TNFα; antibody at 0.0002 nM: 368
  VCAM-1 fluorescence intensity, HUVEC + IL-13 0.5 ng/mL + TNFα; antibody at 0.001 nM: 343
  VCAM-1 fluorescence intensity, HUVEC + IL-13 0.5 ng/mL + TNFα; antibody at 0.004 nM: 374
  VCAM-1 fluorescence intensity, HUVEC + IL-13 0.5 ng/mL + TNFα; antibody at 0.021 nM: 403
  VCAM-1 fluorescence intensity, HUVEC + IL-13 0.5 ng/mL + TNFα; antibody at 0.11 nM: 316
  VCAM-1 fluorescence intensity, HUVEC + IL-13 0.5 ng/mL + TNFα; antibody at 0.53 nM: 286
  VCAM-1 fluorescence intensity, HUVEC + IL-13 0.5 ng/mL + TNFα; antibody at 2.67 nM: 272
  VCAM-1 fluorescence intensity, HUVEC + IL-13 0.5 ng/mL + TNFα; antibody at 13.3 nM: 223
[12]
  mean fluorescence intensity: 97.5
[13]
  mean fluorescence intensity: 27.8
[14]
  mean fluorescence intensity: 98.3
[15]
  mean fluorescence intensity: 96
[16]
  IC50 (read off the curve): 1000 pM
[17]
  mean fluorescence intensity: 83.7
[18]
  mean fluorescence intensity: 96.9
[19]
  IC50 (read off the curve): 700 pM
[20]
  mean fluorescence intensity: 22.6
[21]
  mean fluorescence intensity: 49.1
[22]
  mean fluorescence intensity: 27.3
[23]
  mean fluorescence intensity: 20.8
[24]
  mean fluorescence intensity: 97.6
[25]
  mean fluorescence intensity: 94
[26]
  mean fluorescence intensity: 31
[27]
  mean fluorescence intensity: 78.4
[28]
  mean fluorescence intensity: 24.6

B3: 70F10A10 (lead antibody, mouse hybridoma) (antibody, V domains shown)
VH: B2 VH
VL: B2 VL
[10]
  mean fluorescence intensity: 30.7
[11]
  TARC (pg/mL), A549 cells + IL-13 5 ng/mL + TNFα; antibody at 0.001 nM: 2000 pg/mL
  TARC (pg/mL), A549 cells + IL-13 5 ng/mL + TNFα; antibody at 0.004 nM: 1830 pg/mL
  TARC (pg/mL), A549 cells + IL-13 5 ng/mL + TNFα; antibody at 0.021 nM: 1600 pg/mL
  TARC (pg/mL), A549 cells + IL-13 5 ng/mL + TNFα; antibody at 0.11 nM: 1630 pg/mL
  TARC (pg/mL), A549 cells + IL-13 5 ng/mL + TNFα; antibody at 0.5 nM: 1500 pg/mL
  TARC (pg/mL), A549 cells + IL-13 5 ng/mL + TNFα; antibody at 2.7 nM: 1140 pg/mL
  TARC (pg/mL), A549 cells + IL-13 5 ng/mL + TNFα; antibody at 13.3 nM: 656 pg/mL
  TARC (pg/mL), A549 cells + IL-13 5 ng/mL + TNFα; antibody at 66.7 nM: 207 pg/mL
[12]
  mean fluorescence intensity: 76.7
[13]
  mean fluorescence intensity: 39.1
[14]
  mean fluorescence intensity: 73.5
[15]
  mean fluorescence intensity: 72.5
[17]
  mean fluorescence intensity: 51.9
[18]
  mean fluorescence intensity: 67.6
[19]
  IC50 (read off the curve): 100 pM
[20]
  mean fluorescence intensity: 20.3
[21]
  mean fluorescence intensity: 46
[22]
  mean fluorescence intensity: 24.7
[23]
  mean fluorescence intensity: 19.3
[24]
  mean fluorescence intensity: 75.6
[25]
  mean fluorescence intensity: 70.8
[26]
  mean fluorescence intensity: 42.3
[27]
  mean fluorescence intensity: 46.8
[28]
  mean fluorescence intensity: 37.8
